Entries after “also recorded” stand apart in the source; their conditions may differ.
What was measured:
[1] = system: Huh7 human liver cell line; assay: Luciferase expression from promoters in pAAV vector (with ITRs) in Huh7, forskolin or NKH477 induction; parameters: fold induction with forskolin: dose or concentration left out as unconfirmed
Description: The forskolin-inducible promoters RTV-017, RTV-019 and FORCYB1 were then used to drive expression of luciferase in a pAAV vector in the Huh7 human liver cell line. […] This experiment was performed to investigate the effect of the Inverted Terminal Repeats (ITRs) on the activity of the promoters.
The cells were seeded, transfected and induced as described above. Luciferase expression was measured as described above. In this experiment, the cells were induced by using 20 pM forskolin or 7.2 pM of the water soluble derivative NKH477.

[2] = system: Huh7 human liver cell line; assay: Luciferase expression from forskolin-inducible promoters, transient transfection of PM-RQ plasmid in Huh7; format: cell-based; parameters: luciferase activity following induction / fold induction of promoter (luciferase activity): dose or concentration left out as unconfirmed
Description: Luciferase readouts were normalised to β-galactosidase to produce normalised relative luminometer units (RLUs). β-galactosidase containing pcDNA6 plasmid was used as internal control for transfection efficiency (Thermofisher, V22020). β-galactosidase activity was measured as per manufacturer's instructions (Mammalian βGalactosidase Assay Kit, 75707/75710, Thermo Scientific) using 25 μl of lysate. 25 μl of lysate was transferred into a microplate well and mixed with 25 μl of β-galactosidase Assay Reagent, equilibrated to room temperature. The mixture was incubated at 37° C. for 30 min and absorbance measured at 405 nm.
The forskolin-inducible promoters were initially used to drive expression of luciferase in the Huh7 human liver cell line and the C2C12 […]. The promoter constructs were used to drive expression of luciferase in the PM-RQ plasmid. The tested promoters were synthesised directly upstream of the ATG of PM-RQ plasmid.
• Huh7 cells which are a human liver cell line • DPBS: without CaCl2, without MgCl2 (Gibco, 14190-094) • DMEM (Sigma, D6546) • FBS (Sigma, F9665) • Pen-Strep (Sigma, P4333) • Promega Fugene-HD (E2311) • Forskolin (Sigma, F6886) • NKH477 (Sigma, N3290) • LARII (Dual Luciferase Reporter 1000 assay system, Promega, E1980) • 48 well plates flat bottom (353230, Corning) • Trypsin-EDTA (25200-056, Gibco) • T25 & T75 flask (353108, 353136, Corning) • 15 ml Falcon tubes (430791, Corning) • Stripettes 5 ml, 10 ml and 25 ml (4101,4051,4251, Corning)
Cells were seeded onto a 48 well plate at a density of 25,000 cells/300 μl
• On the day of transfection, DNA to be transfected was diluted to a 100 ng/μl stock solution. DNA to be transfected was the RTV-017, RTV-019 or CMV-IE promoter driving luciferase in the PM-RQ plasmid. • Per 48 well transfection, 45 ng of DNA was mixed with 4.1 μl of Optimem medium. • 0.5 μl of […] was mixed with 4 μl of Optimem medium. • These 2 solutions were mixed and incubated at room temperature for 15 minutes. • The final solution was then added to the well drop wise. • 3 hrs after transfection the inducer was added to the appropriate wells at the indicated concentration. Inducer was forskolin at […].
• 24 hrs after induction, the luciferase activity was measured as described below.
• Luciferase activity was measured using LARII (Dual Luciferase Reporter 1000 assay system, Promega, E1980) • 24 hours after induction, the media was removed from the cells • The cells were washed once in 300 μl of DPBS. • Cells were lysed using 100 μl of passive lysis buffer and incubated with rocking for 15 minutes. • The cell debris was pelleted by centrifugation of the plate at max speed in a benchtop centrifuge for 1 min • For luciferase, 10 μl sample was transferred into white 96-well plate and luminescence measured by injection of 50 μl of LARII substrate
RTV-017 and RTV-019 were transiently transfected into the human liver cell line Huh7 (FIG. 2). RTV-019 was transiently transfected into the […] C2C12 (FIG. 3). The activity of the promoters was assessed using luciferase activity. The luciferase activity was measured with and without the presence of […] forskolin.

HEK293-F = assay: Luciferase time course under hypoxia, transiently transfected HEK293-F; format: cell-based, human; conditions: 5% oxygen, 3, 5 and 24 hrs
Description: The constructs were initially used to drive luciferase expression in HEK293-F and HEK293-T in hypoxia.
40 ml of cells were grown in a 250 ml vented Erlenmeyer flask (Sigma-Aldrich CLS431144) at 37° C., 20% O2, 8% CO2 with agitation at 100 rpm. Cells were seeded as described in the manufacturer's instructions (300,000 cells/ml). HEK293-F were obtained from Thermofisher, R79007.
One day before transfection, the cells were counted using a haemocytometer and split to 500,000 cells/ml.
On the day of transfection, the cells are seeded to 1,000,000 cells/ml in 500 μl of appropriate medium (Freestyle 293 expression medium, 12338002) in a 24 well plate. […] of DNA per well was then added to 10 μl of OptiMem medium (Thermofisher; 11058021) and incubated for 5 minutes at room temperature.
Concurrently, 0.625 μl of Max reagent (Thermofisher, 16447100) was made up to 10 μl by addition of OptiMem and incubated for 5 minutes at room temperature. After this incubation, both mixes were added to the same tube and incubated at room temperature for 25-30 minutes. […]
After transfection the cells were incubated for 24 hrs in normoxia conditions (20% oxygen) before being switched to a gas mix of 5% oxygen, 10% carbon dioxide and 85% nitrogen (hypoxia). […] Induction of the promoters was assessed by using luciferase activity after 3, 5 and 24 hrs in hypoxia.
Luciferase activity was measured using LARII (Dual Luciferase Reporter 1000 assay system, Promega, E1980).
Media was removed from the cells at the respective time point (0, 3, 5, 24 hrs after induction). […] 10 μl of supernatant was pipetted into white 96-well plate and luminescence measured by addition of 50 μl of LARII substrate.
β-galactosidase activity was measured as per manufacturer's instructions (Mammalian βGalactosidase Assay Kit, 75707/75710, Thermo Scientific) using 25 μl of lysate. […] The mixture was incubated at 37° C. for 30 min and absorbance measured at 405 nm.
Luciferase readouts were normalised to β-galactosidase to produce normalised relative luminometer units (RLUs).

B1: RTV-017: synthetic forskolin-inducible promoter, SEQ ID NO: 43; 8× AP1(1) TFBS and CMV-MP minimal promoter (nucleic acid)
DNA: TGAGTCAGATGATGCGTAGCTAGTAGTTGAGTCAGATGATGCGTAGCTAGTAGTTGAGTCAGATGATGCGTAGCTAGTAGTTGAGTCAGATGATGCGTAGCTAGTAGTTGAGTCAGATGATGCGTAGCTAGTAGTTGAGTCAGATGATGCGTAGCTAGTAGTTGAGTCAGATGATGCGTAGCTAGTAGTTGAGTCAGTAGTCGTATGCTGATGCGCAGTTAGCGTAGCTGAGGTACCGTCGACGATATCGGATCCAGGTCTATATAAGCAGAGCTCGTTTAGTGAACCGTCAGATCGCCTAGATACGCCATCCACGCTGTTTTGACCTCCATAGAAGATCGCCACC
modifications: Synp-RTV-017
notes: 8× AP1(1) TFBS and CMV-MP minimal promoter
fold induction with forskolin ([1]; Huh7): 44 fold
luciferase activity without induction (background) ([1]; Huh7): low background activity
fold induction with NKH477 ([1]; Huh7, 7.2 pM NKH477): 23 fold
luciferase activity following induction ([1]; Huh7, or 7.2 pM NKH477): high activity
luciferase activity without induction (background) ([2]; Huh7, before addition of forskolin): low background activity
luciferase activity following induction ([2]; Huh7, forskolin): high activity; also recorded: much higher activity
fold induction of promoter (luciferase activity) ([2]; Huh7 liver cells, PM-RQ plasmid, forskolin, 24 hrs after induction): 13 fold

B2: CMV minimal promoter: CMV minimal promoter, SEQ ID NO: 28; named as control in FIG. 13 legend (nucleic acid)
DNA: AGGTCTATATAAGCAGAGCTCGTTTAGTGAACCGTCAGATCGCCTAGATACGCCATCCACGCTGTTTTGACCTCCATAGAAGATCGCCACC
effect of switch to hypoxia on luciferase activity (HEK293-F): does not change

From patent publication US20230167458A1, “FORSKOLIN-INDUCIBLE PROMOTERS AND HYPOXIA-INDUCIBLE PROMOTERS” (ASKLEPIOS BIOPHARMACEUTICAL, INC., priority 2020, published 2023)
